Laboratory results taken from US20190367586A1 (VANDERBILT UNIVERSITY, published 2019).

B1: hRSV75 (antibody, V domains shown)
VH: EVQLVESGGGLVKPGGSLRLSCAASGFTFRSYSMNWVRQAPGKGLEWVSSITSSSSYIDYADSVKGRFTISRDNAKNSLYLQMNSLRAEDTAVYYCARAYCGGDCSVDHFQHWGQGTLVTVSS
VL: QSVLTQPPSVSGAPGQRVTISCTGSSSNIGAGYDVHWYQHLPGTAPKLLIYVNSNRPSGVPDRFSASKSGTSASLAITGLQAEDEADYYCQSYDKSLSGFYVFGTGTKVTVL
B2: hRSV61 (antibody, V domains shown)
VH: QVQLVQSGAELKKPGASVKVSCKASGYTFTNHGITWVRQAPGQGLEWMSWISGYNGNTQYAQKFQGRVTMTTDTSTRTAYMELRSLTSDDTAVYYCARDNGVVVGPPDYWGQGTLVTVSS
VL: DIQMTQSPSTLSASVGDRVTISCRASQSISSWLAWYQQKPGKPPKLLIYKASGLQTGVPSRFSGSGSGTEFTLTISSLQPDDFATYYCQYYHSLSAFGQGTKVEIK
B3: hRSV139 (antibody, V domains shown)
VH: QVQLVQSGAEVKKPGASVKVSCKASGYVFSNYGISWVRQAPGQGLEWMGWISAYNGNTEFAQKFQGRITMTTDTSTNTAYLEVRGLRSDDTAVYYCSRQSGVSGVPEFQDWGQGTLVTVSS
VL: QAVVTQSPLSLPVTLGQPASISCRSSQSLVYSNGDTYLSWFQQRPGQSPRRLIYKVSNRDSGVPDRFSASGSGTDFTLKISRVEAEDVGVYYCMQGTHWPPPTFGQGTRLEIK
B4: hRSV20 (antibody, V domains shown)
VH: QVQLVESGGGLVQPGRSLRLSCAASGFTFDDYAMHWVRQAPGRGLEWVSGISWNSGIAVYADSVKGRFTISRDNAKKSLYLQINSLRAEDTALYYCVKDNYASGSYSSYYYYYGLDLWGQGTLVTVSS
VL: EIVMTQSPATLSVSPGERATLSCRASQSIISNLAWYQQKPGQAPRLLIYGVSTRATGIPARFSGSGSDTEFTLSISSLQSEDFAVYYCQQYNNWPITFGQGTRLEIK
B5: hRSV7 (antibody, V domains shown)
VH: EVQLVESGGGLVQPGGSLRLSCAASGFTFRNYAMSWVRQAPGKGLEWVSDISSGGDTTYYAESLKGRITISRDNSKNTLYLQMNSLRAEDAAIYFCAKHLLSPMYVNTDVFPDWYFEIWGRGTLVTVSS
VL: SYELTQPPSVSVSPGQTARITCSGDGLPKKYAYWYQQKSGQAPVLVIYDDSKRPSGIPERFSGTSSGTMATLIISGAQVEDEADYYCYSRHNSAYQRVFGAGTQLTVL
B6: hRSV90 (antibody, V domains shown)
VH: EVQLVESGGGLVQPRRSLRLSCAASGFTFDDYTIHWVRQAPGKGLEWVSGITWNSGYIGYADSVKGRFTISRDNARNSLYLQMNSLRAEDTALYYCVRDAYVSGSDYYYYGLDVWGRGTLVTVSS
VL: EIVMTSSPATLSVSPGERATLFCRASQSVISNLAWYQQKSGQAPRLLIYGASTRATGIPARFSGSGSGTEFTLTISSLQSEDFAVYFCQQYNNWPLTFGGGTQVNVQ
notes: also called mAb hRSV90
B7: AM14 (antibody, V domains shown)
VH: EVQLVESGGGVVQPGRSLRLSCAASGFSFSHYAMHWVRQAPGKGLEWVAVISYDGENTYYADSVKGRFSISRDNSKNTVSLQMNSLRPEDTALYYCARDRIVDDYYYYGMDVWGQGATVTVSS
VL: DIQMTQSPSSLSASVGDRVTITCQASQDIKKYLNWYHQKPGKVPELLMHDASNLETGVPSRFSGRGSGTDFTLTISSLQPEDIGTYYCQQYDNLPPLTFGGGTKVEIKR
B8: hRSV141 (antibody, V domains shown)
VH: QVQLVQSGAEVKKPGASVKVSCKASGYTFTNYYMHWVRQAPGQGLEWMGWINPNRGGTNYAQKFQGRVTMTLDTSISTAYIELSRLRSDDTAVYYCARDLTLGTDYWGQGTLVTVSS
VL: QAVVTQPASVFGFPGQSITISCTGTSSDVGGYNYVSWYQQRPGKAPKLMIYEVSNRPSGVSNRFSGSKSGNTASLTISGLQAEDEADYYCNSYTSSNSYVFGTGTKVTVL
B9: motavizumab (antibody, V domains shown)
VH: QVTLRESGPALVKPTQTLTLTCTFSGFSLSTAGMSVGWIRQPPGKALEWLADIWWDDKKHYNPSLKDRLTISKDTSKNQVVLKVTNMDPADTATYYCARDMIFNFYFDVWGQGTTVTVSS
VL: DIQMTQSPSTLSASVGDRVTITCSASSRVGYMHWYQQKPGKAPKLLIYDTSKLASGVPSRFSGSGSGTEFTLTISSLQPDDFATYYCFQGSGYPFTFGGGTKVEIK
B10: palivizumab (antibody, V domains shown)
VH: QVTLRESGPALVKPTQTLTLTCTFSGFSLSTSGMSVGWIRQPPGKALEWLADIWWDDKKDYNPSLKSRLTISKDTSKNQVVLKVTNMDPADTATYYCARSMITNWYFDVWGAGTTVTVSS
VL: DIQMTQSPSTLSASVGDRVTITCKCQLSVGYMHWYQQKPGKAPKLLIYDTSKLASGVPSRFSGSGSGTEFTLTISSLQPDDFATYYCFQGSGYPFTFGGGTKLEIK
B11: hRSV106 (antibody, V domains shown)
VH: QITLKESGPTLVKPTQTLTLTCTFSGFSLTTRGVGVAWIRQPPGKALEWLALIYWDDDKRYRSSPKGRLTITKDNSKNQVVLIMTNMDPVDTATYYCAHAMDDSGSYYVGLSKDPHFDSWGHGTLVTVSS
VL: SYELTQPPSVSVSPGQTASITCSGDVLFNKFASWYQQKPGQSPVLVIYQDSKRPSGIPERFSGSNSGNTATLTIRGTQAMDEADYYCQARGSTAAHVIFGGGTKVTVL
B12: hRSV12 (antibody, V domains shown)
VH: QVQLVQSGAEVKKPGTSVRVSCKTSGYNFMNYGIYWVRQAPGQGLEWVGWISAYNGQTDRAQKFQGRVTMTTDISTNTGYMDLRSLRSDDTAVYFCARGPPVIAAVSLEYWGRGTLVTVSS
VL: EVVMTQSPLSLPVTLGQPASISCKSSQSLVHSNGDTYLNWFQQRPGQSPRRLIYKVSNRDSGVPDRFSGSGSGTDFTLKISRVETEDVGVYYCMQATHWPGSFGQGTKLEIK
B13: D25 (antibody, V domains shown)
VH: QVQLVQSGAEVKKPGSSVMVSCQASGGPLRNYIINWLRQAPGQGPEWMGGIIPVLGTVHYAPKFQGRVTITADESTDTAYIHLISLRSEDTAMYYCATETALVVSTTYLPHYFDNWGQGTLVTVSS
VL: DIQMTQSPSSLSAAVGDRVTITCQASQDIVNYLNWYQQKPGKAPKLLIYVASNLETGVPSRFSGSGSGTDFSLTISSLQPEDVATYYCQQYDNLPLTFGGGTKVEIKR
B14: hRSV97 (antibody, V domains shown)
VH: EVQLVESGGTLVQPGRSLRLSCAASGFNFEEYAMHWVRQVPGKGLEWVARINWNGGIIGYADSVKGRFTISRDNAKKSLYLQMNSLRTDDSALYYCGKDVFWAVAGTGGPIDSWGQGTLVTVSS
VL: DIVMTQSPSSLSASIGDRVTISCRASRDISNYLAWYQQKSGKVPKLLIYAASTLESGVPSRFSGSGSGTDFTLTISSLQPEDVATYYCQNYNSAQMCSFGQGPSLEIK

How the values were obtained:
[1] = target: F protein of RSV strain A2 (infectious virus) (human respiratory syncytial virus …, UniProt P03420 26-574); experiment: cell-based or functional assay
[2] = target: F protein of RSV strain 18537 B (infectious virus) (human respiratory syncytial virus …, UniProt P13843 26-574); experiment: cell-based or functional assay
[3] = target: F protein of RSV strain Long (infectious virus) (human respiratory syncytial virus …, UniProt P12568 26-574); experiment: cell-based or functional assay
[4] = target: T1, RSV strain A2 pre-fusion F protein (SC-TM) (human respiratory syncytial virus …, UniProt P03420 26-513); experiment: ELISA, F protein coated
T1 construct: not shown: fold-on trimerization domain and polyhistidine tag

[5] = target: T2, RSV strain 18537 post-fusion F (human respiratory syncytial virus …, UniProt P13843 26-109; P13843 137-524); experiment: ELISA, F protein coated
T2 construct: extracellular domain; also called RSV B 18537 (post)

[6] = target: F protein of RSV strain A2 (infectious virus) (human respiratory syncytial virus …, UniProt P03420 26-574); experiment: cell-based or functional assay; remark: listed apart in the source
[7] = target: RSV strain A2 pre-fusion F protein (SC-TM) (human respiratory syncytial virus …, UniProt P03420 26-513); experiment: ELISA, F protein coated
[8] = target: T3, RSV strain A2 post-fusion F (human respiratory syncytial virus …, UniProt P03420 26-109; P03420 137-524); experiment: ELISA, F protein coated
T3 construct: extracellular domain

Binder | Neutralization IC50, plaque-reduction assay [1] | Neutralization IC50, plaque-reduction assay [2] | Neutralization IC50, plaque-reduction assay [3] | EC50 [4] | EC50 [5] | Neutralization IC50, plaque-reduction assay [6] | EC50 [7] | EC50 [8]
B1 | 0.129 µg/mL | 0.062 µg/mL | 0.019 µg/mL | 0.044 µg/mL | – | – | – | –
B2 | 0.276 µg/mL | 0.09 µg/mL | 0.054 µg/mL | 0.027 µg/mL | – | – | – | –
B3 | 0.621 µg/mL | 0.216 µg/mL | 0.07 µg/mL | 0.04 µg/mL | – | – | – | –
B4 | 0.034 µg/mL | 0.114 µg/mL | 0.014 µg/mL | – | – | – | – | –
B5 | 1.33 µg/mL | 0.022 µg/mL | 0.062 µg/mL | – | – | – | – | –
B6 | 0.015 µg/mL | 0.045 µg/mL | 0.035 µg/mL | 0.028 µg/mL | – | – | – | –
B7 | – | – | 0.043 µg/mL | – | 0.198 µg/mL | – | – | –
B8 | 0.626 µg/mL | 0.053 µg/mL | 0.028 µg/mL | 0.029 µg/mL | – | – | – | –
B9 | – | 0.091 µg/mL | 0.009 µg/mL | – | 0.084 µg/mL | 0.123 µg/mL | 0.017 µg/mL | 0.083 µg/mL
B10 | – | 1.27 µg/mL | 0.212 µg/mL | – | 0.081 µg/mL | 11 µg/mL | – | 0.024 µg/mL
B11 | 0.451 µg/mL | 0.114 µg/mL | 0.043 µg/mL | 0.046 µg/mL | – | – | – | –
B12 | 0.141 µg/mL | 0.443 µg/mL | 0.016 µg/mL | 0.028 µg/mL | – | – | – | 0.285 µg/mL
B13 | – | > 1 µg/mL | 0.009 µg/mL | – | – | – | – | –
B14 | 2.23 µg/mL | 0.065 µg/mL | 0.106 µg/mL | 0.053 µg/mL | – | – | – | –
